125 sequences from the supplement of paper PMC9112550, “Optimization of the antimicrobial peptide Bac7 by deep mutational scanning” (BMC Biology, 2022) can be followed below.

The subject of this series is Escherichia coli TOP10. Nature of the series: shrunken log2 fold change of peptide-encoding DNA abundance (4.5 h post-induction vs induction); higher = less antimicrobial activity (less host growth inhibition). As to conditions: time post-induction: 4.5 h; library: site-saturation at positions 5, 18, 19, 20.
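Also: peptides expressed intracellularly from a pBAD plasmid library in pooled LB shake-flask culture, induced with 0.3% L-arabinose, DNA abundance read by NGS, three biological replicates, DESeq2 with apeglm shrinkage.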

Regarding RRIRQRPPRLPRPRPRPCLAPRP, the “shrunken log2 fold change” value was found to be 0.297.

Take RRIRERPPRLPRPRPRPTNCPRP: the “shrunken log2 fold change” value was -0.165.

Regarding RRIRCRPPRLPRPRPRPDCGPRP, the “shrunken log2 fold change” value was -0.169.

RRIRLRPPRLPRPRPRPMKVPRP: the “shrunken log2 fold change” value was -0.00674.

On to RRIRGRPPRLPRPRPRPPFSPRP, for which the “shrunken log2 fold change” value is 0.444.

On to RRIRMRPPRLPRPRPRPKRCPRP, for which the “shrunken log2 fold change” value came out at 0.211.

For RRIRCRPPRLPRPRPRPECMPRP, the “shrunken log2 fold change” value came to 0.119.

Consider RRIRERPPRLPRPRPRPSWEPRP, for which the “shrunken log2 fold change” value was -0.25.

For the sequence RRIRKRPPRLPRPRPRPSTNPRP, the “shrunken log2 fold change” value came out at 0.0826.

For RRIRMRPPRLPRPRPRPSWEPRP, the “shrunken log2 fold change” value was determined as 0.302.

RRIRCRPPRLPRPRPRPEVLPRP: the “shrunken log2 fold change” value is 0.149.

Take RRIRLRPPRLPRPRPRPGCHPRP: the “shrunken log2 fold change” value was -0.268.

Turning to RRIRTRPPRLPRPRPRPYDWPRP, the “shrunken log2 fold change” value was -0.696.

RRIRPRPPRLPRPRPRPEDPPRP: the “shrunken log2 fold change” value was determined as 0.122.

As to RRIRTRPPRLPRPRPRPQLHPRP, the “shrunken log2 fold change” value stood at 0.0211.

Take RRIRNRPPRLPRPRPRPQKYPRP: the “shrunken log2 fold change” value was 0.125.

Take RRIRVRPPRLPRPRPRPEHRPRP: the “shrunken log2 fold change” value was -0.0452.

For the sequence RRIRNRPPRLPRPRPRPIHSPRP, the “shrunken log2 fold change” value was -0.189.

For the sequence RRIRRRPPRLPRPRPRPDQHPRP, the “shrunken log2 fold change” value was found to be 0.552.

RRIRVRPPRLPRPRPRPMMLPRP: the “shrunken log2 fold change” value is -0.0127.

Consider RRIRGRPPRLPRPRPRPSAVPRP, for which the “shrunken log2 fold change” value amounted to 1.39.

As to RRIRERPPRLPRPRPRPGHGPRP, the “shrunken log2 fold change” value was -0.281.

Turning to RRIRERPPRLPRPRPRPDFKPRP, the “shrunken log2 fold change” value was 0.0659.

Take RRIRLRPPRLPRPRPRPYKFPRP: the “shrunken log2 fold change” value was -0.447.

For the sequence RRIRERPPRLPRPRPRPPQCPRP, the “shrunken log2 fold change” value was -0.302.

Consider RRIRPRPPRLPRPRPRPKPHPRP, for which the “shrunken log2 fold change” value is 0.294.

With RRIRGRPPRLPRPRPRPDGDPRP, the “shrunken log2 fold change” value is 0.265.

Take RRIRFRPPRLPRPRPRPQHQPRP: the “shrunken log2 fold change” value is -0.185.

Take RRIRDRPPRLPRPRPRPRTLPRP: the “shrunken log2 fold change” value was 0.14.

On to RRIRIRPPRLPRPRPRPAEVPRP, for which the “shrunken log2 fold change” value was -0.041.

With RRIRMRPPRLPRPRPRPPSPPRP, the “shrunken log2 fold change” value came to 1.57.

Take RRIRMRPPRLPRPRPRPVMAPRP: the “shrunken log2 fold change” value turned out to be 0.266.

Consider RRIRVRPPRLPRPRPRPTGWPRP, for which the “shrunken log2 fold change” value was found to be 0.377.

As for RRIRERPPRLPRPRPRPAEIPRP, the “shrunken log2 fold change” value was -0.207.

As to RRIRFRPPRLPRPRPRPCICPRP, the “shrunken log2 fold change” value was -0.136.

Consider RRIRHRPPRLPRPRPRPFEVPRP, for which the “shrunken log2 fold change” value was -0.172.

With RRIRHRPPRLPRPRPRPTLTPRP, the “shrunken log2 fold change” value is -0.188.

As to RRIRQRPPRLPRPRPRPFTSPRP, the “shrunken log2 fold change” value is -0.00281.

In the case of RRIRYRPPRLPRPRPRPQNNPRP, the “shrunken log2 fold change” value is -0.86.

For the sequence RRIRKRPPRLPRPRPRPIQAPRP, the “shrunken log2 fold change” value was -0.000921.

As for RRIRNRPPRLPRPRPRPEFNPRP, the “shrunken log2 fold change” value was -0.0322.

Regarding RRIRLRPPRLPRPRPRPIEGPRP, the “shrunken log2 fold change” value amounted to 0.0046.

Turning to RRIRTRPPRLPRPRPRPCIWPRP, the “shrunken log2 fold change” value is -0.0258.

In the case of RRIRKRPPRLPRPRPRPWWCPRP, the “shrunken log2 fold change” value is 0.0624.

In the case of RRIRHRPPRLPRPRPRPFKAPRP, the “shrunken log2 fold change” value is -0.0378.

In the case of RRIRSRPPRLPRPRPRPFMFPRP, the “shrunken log2 fold change” value was -0.156.

For the sequence RRIRVRPPRLPRPRPRPTDFPRP, the “shrunken log2 fold change” value was -0.0704.

Take RRIRMRPPRLPRPRPRPCPYPRP: the “shrunken log2 fold change” value was -0.126.

Turning to RRIRNRPPRLPRPRPRPRRLPRP, the “shrunken log2 fold change” value was found to be 2.6.

Turning to RRIRSRPPRLPRPRPRPPIHPRP, the “shrunken log2 fold change” value is -0.329.

As for RRIRIRPPRLPRPRPRPEVMPRP, the “shrunken log2 fold change” value was -0.195.

On to RRIRFRPPRLPRPRPRPYRFPRP, for which the “shrunken log2 fold change” value is -0.243.

As for RRIRSRPPRLPRPRPRPGTHPRP, the “shrunken log2 fold change” value was -0.146.

Take RRIRIRPPRLPRPRPRPCHKPRP: the “shrunken log2 fold change” value was -0.16.

As to RRIRCRPPRLPRPRPRPWLPPRP, the “shrunken log2 fold change” value is -0.122.

As for RRIRLRPPRLPRPRPRPCCEPRP, the “shrunken log2 fold change” value is 0.812.

With RRIRPRPPRLPRPRPRPGCGPRP, the “shrunken log2 fold change” value stood at 0.514.

In the case of RRIRCRPPRLPRPRPRPGFPPRP, the “shrunken log2 fold change” value was determined as 0.134.

RRIRHRPPRLPRPRPRPLKPPRP: the “shrunken log2 fold change” value amounted to 0.18.

As to RRIRMRPPRLPRPRPRPPSCPRP, the “shrunken log2 fold change” value was 0.932.

Regarding RRIRVRPPRLPRPRPRPYTKPRP, the “shrunken log2 fold change” value was -0.868.

As for RRIRARPPRLPRPRPRPHDLPRP, the “shrunken log2 fold change” value came out at 0.084.

As for RRIRYRPPRLPRPRPRPKQKPRP, the “shrunken log2 fold change” value was -0.0531.

As to RRIRQRPPRLPRPRPRPKLSPRP, the “shrunken log2 fold change” value came out at 0.00202.

RRIRTRPPRLPRPRPRPNRSPRP: the “shrunken log2 fold change” value is -0.069.

With RRIRKRPPRLPRPRPRPYNLPRP, the “shrunken log2 fold change” value was -0.119.

RRIRYRPPRLPRPRPRPCLFPRP: the “shrunken log2 fold change” value is -0.931.

For RRIRLRPPRLPRPRPRPSVSPRP, the “shrunken log2 fold change” value is -0.0466.

In the case of RRIRTRPPRLPRPRPRPNWLPRP, the “shrunken log2 fold change” value is 0.295.

Turning to RRIRARPPRLPRPRPRPCNYPRP, the “shrunken log2 fold change” value was -0.178.

Consider RRIRQRPPRLPRPRPRPHFNPRP, for which the “shrunken log2 fold change” value was -0.324.

Consider RRIRHRPPRLPRPRPRPTWWPRP, for which the “shrunken log2 fold change” value stood at 0.368.

With RRIRQRPPRLPRPRPRPHIVPRP, the “shrunken log2 fold change” value was -0.225.

As to RRIRGRPPRLPRPRPRPLYKPRP, the “shrunken log2 fold change” value came to 0.0468.

On to RRIRNRPPRLPRPRPRPVSKPRP, for which the “shrunken log2 fold change” value was determined as 0.124.

RRIRYRPPRLPRPRPRPSDRPRP: the “shrunken log2 fold change” value was -0.307.

RRIRARPPRLPRPRPRPMYEPRP: the “shrunken log2 fold change” value was -0.0125.

As to RRIRARPPRLPRPRPRPMSKPRP, the “shrunken log2 fold change” value came out at 0.16.

Take RRIRERPPRLPRPRPRPVFEPRP: the “shrunken log2 fold change” value was -0.151.

Take RRIRWRPPRLPRPRPRPHRDPRP: the “shrunken log2 fold change” value is -0.215.

As for RRIRDRPPRLPRPRPRPTMSPRP, the “shrunken log2 fold change” value stood at 0.0526.

Turning to RRIRGRPPRLPRPRPRPLYGPRP, the “shrunken log2 fold change” value is -0.105.

Consider RRIRYRPPRLPRPRPRPNPWPRP, for which the “shrunken log2 fold change” value was -0.189.

As to RRIRLRPPRLPRPRPRPHKTPRP, the “shrunken log2 fold change” value was 0.0373.

Regarding RRIRWRPPRLPRPRPRPWPAPRP, the “shrunken log2 fold change” value is 0.62.

RRIRKRPPRLPRPRPRPHSEPRP: the “shrunken log2 fold change” value is -0.0169.

RRIRNRPPRLPRPRPRPSQGPRP: the “shrunken log2 fold change” value is -0.154.

RRIRMRPPRLPRPRPRPGWKPRP: the “shrunken log2 fold change” value came to 0.0184.

With RRIRPRPPRLPRPRPRPQPWPRP, the “shrunken log2 fold change” value is 0.348.

Turning to RRIRFRPPRLPRPRPRPCETPRP, the “shrunken log2 fold change” value is -0.00947.

For the sequence RRIRWRPPRLPRPRPRPFKRPRP, the “shrunken log2 fold change” value stood at 0.0707.

In the case of RRIRWRPPRLPRPRPRPDAMPRP, the “shrunken log2 fold change” value was 0.393.

RRIRHRPPRLPRPRPRPIEQPRP: the “shrunken log2 fold change” value was -0.0277.

Take RRIRCRPPRLPRPRPRPCPRPRP: the “shrunken log2 fold change” value worked out at 0.00856.

For the sequence RRIRERPPRLPRPRPRPGTPPRP, the “shrunken log2 fold change” value was determined as 0.0316.

RRIRHRPPRLPRPRPRPRSDPRP: the “shrunken log2 fold change” value is -0.123.

On to RRIRVRPPRLPRPRPRPKTDPRP, for which the “shrunken log2 fold change” value was -0.202.

As for RRIRLRPPRLPRPRPRPLHCPRP, the “shrunken log2 fold change” value turned out to be 0.118.

Regarding RRIRIRPPRLPRPRPRPMPRPRP, the “shrunken log2 fold change” value is 0.0826.

For the sequence RRIRPRPPRLPRPRPRPNCSPRP, the “shrunken log2 fold change” value was -0.132.

RRIRVRPPRLPRPRPRPYVTPRP: the “shrunken log2 fold change” value turned out to be 0.0974.

For RRIRQRPPRLPRPRPRPEGEPRP, the “shrunken log2 fold change” value came to 0.0215.

Turning to RRIRLRPPRLPRPRPRPGTKPRP, the “shrunken log2 fold change” value was 0.2.

As for RRIRRRPPRLPRPRPRPVDGPRP, the “shrunken log2 fold change” value is 0.576.

For RRIRARPPRLPRPRPRPGLEPRP, the “shrunken log2 fold change” value is 0.629.

Consider RRIRWRPPRLPRPRPRPVCYPRP, for which the “shrunken log2 fold change” value was determined as 0.028.

For the sequence RRIRQRPPRLPRPRPRPENDPRP, the “shrunken log2 fold change” value is -0.0134.

Turning to RRIRVRPPRLPRPRPRPFTMPRP, the “shrunken log2 fold change” value was -0.368.

As to RRIRHRPPRLPRPRPRPTKQPRP, the “shrunken log2 fold change” value is -0.0343.

Take RRIRLRPPRLPRPRPRPWYIPRP: the “shrunken log2 fold change” value was -0.137.

RRIRWRPPRLPRPRPRPSDNPRP: the “shrunken log2 fold change” value was -0.14.

In the case of RRIRHRPPRLPRPRPRPQQTPRP, the “shrunken log2 fold change” value came to 0.0173.

With RRIRIRPPRLPRPRPRPIWFPRP, the “shrunken log2 fold change” value is -0.164.

In the case of RRIRNRPPRLPRPRPRPLHEPRP, the “shrunken log2 fold change” value came to 0.0748.

Consider RRIRKRPPRLPRPRPRPDCMPRP, for which the “shrunken log2 fold change” value was -0.0185.

RRIRWRPPRLPRPRPRPFSHPRP: the “shrunken log2 fold change” value was -0.241.

Regarding RRIRRRPPRLPRPRPRPCKDPRP, the “shrunken log2 fold change” value is -0.0845.

In the case of RRIRHRPPRLPRPRPRPRVCPRP, the “shrunken log2 fold change” value worked out at 0.318.

RRIRGRPPRLPRPRPRPRSHPRP: the “shrunken log2 fold change” value was determined as 0.239.

RRIRFRPPRLPRPRPRPQSHPRP: the “shrunken log2 fold change” value was -0.243.

Consider RRIRGRPPRLPRPRPRPPQHPRP, for which the “shrunken log2 fold change” value was 0.789.

For RRIRARPPRLPRPRPRPTVDPRP, the “shrunken log2 fold change” value turned out to be 0.732.

As to RRIRFRPPRLPRPRPRPDWCPRP, the “shrunken log2 fold change” value is -0.00301.

Turning to RRIRERPPRLPRPRPRPPAGPRP, the “shrunken log2 fold change” value turned out to be 0.589.

For the sequence RRIRFRPPRLPRPRPRPTFMPRP, the “shrunken log2 fold change” value was -0.444.
